Experimental data reported in patent EP4552657A1, “RADIOPHARMACEUTICAL COMPLEXES AND COMBINATIONS” (priority 2023, dated 2025).

Tests used:
[1] = system: CHO cells stably expressing GUCY2C; conditions: 20 kBq/µg; 6 days; vs isotype control
Procedure: In vitro cytotoxicity of Ac-225-ACC was determined in cell lines expressing different levels of relevant target receptors. Cells were seeded at an appropriate cell density in relevant cell media. One day after seeding, the radiolabeled compounds at the specific activity of 2-20 kBq/µg and radioactive concentration of 50-100 kBq/ml were titrated in parallel with a radiolabeled isotype control. Cells were incubated for 5-6 days. Cell viability was determined by cell counting using Hoechst and PI staining and analyzed on Operetta CLS High Content Analysis System (Perkin Elmer) or by ATP measurements using CellTiterGlo (Promega).
The cells were seeded at an appropriate cell density in MEM Alpha + 10% FBS + 1x Glutamax + 0.5 mg/ml G418. […] Cells were treated for 6 days and subsequentially cell viability was determined using CellTiterGlo (Promega).

[2] = molecular target: GUCY2C (Homo sapiens, UniProt P25092); assay: Immunoreactive fraction (IRF), binding to GUCY2C-coated beads
Procedure: Shortly after completion of the radiolabeling, the binding was assessed by measuring the fraction of radiolabeled antibody-chelator conjugate bound to relevant antigen coated magnetic beads (Thermo Fisher Scientific). In short, beads were placed in 2 mL Eppendorf tubes in 90 µL buffer (PBS/0.1% Tween 20/1% BSA). The radiolabeled compounds were diluted to 5 Bq/µL in buffer and 50 Bq were added to each bead-containing tube. The binding lasted for 60 min while shaking at 750 rpm at room temperature. After completion of the binding step, magnet (DynaMag-2) was used to separate the beads from […] supernatant. The radio activities in the supernatant and in the beads of each sample were measured using a high purity Germanium detector (Ortec). […] Total binding was defined as [(activity in beads […])/ (total activity)] × 100.
After completion of the radiolabeling, the binding Ac225-macropa-Indusatumab to GUCY2C-coated M270-carboxy Dynabeads was determined by IRF (as describe above).

[3] = molecular target: T1, human c-Met (Homo sapiens, UniProt P08581); assay: Flow cytometry, cell surface binding on MKN-45 and HT-55 cells; conditions: compared to unconjugated Telisotuzumab
T1 construct: MKN-45 and HT-55 cells expressing human c-Met; endogenous in cells; host or cells: MKN-45, HT-55
T1 sequence (P08581 25-1390): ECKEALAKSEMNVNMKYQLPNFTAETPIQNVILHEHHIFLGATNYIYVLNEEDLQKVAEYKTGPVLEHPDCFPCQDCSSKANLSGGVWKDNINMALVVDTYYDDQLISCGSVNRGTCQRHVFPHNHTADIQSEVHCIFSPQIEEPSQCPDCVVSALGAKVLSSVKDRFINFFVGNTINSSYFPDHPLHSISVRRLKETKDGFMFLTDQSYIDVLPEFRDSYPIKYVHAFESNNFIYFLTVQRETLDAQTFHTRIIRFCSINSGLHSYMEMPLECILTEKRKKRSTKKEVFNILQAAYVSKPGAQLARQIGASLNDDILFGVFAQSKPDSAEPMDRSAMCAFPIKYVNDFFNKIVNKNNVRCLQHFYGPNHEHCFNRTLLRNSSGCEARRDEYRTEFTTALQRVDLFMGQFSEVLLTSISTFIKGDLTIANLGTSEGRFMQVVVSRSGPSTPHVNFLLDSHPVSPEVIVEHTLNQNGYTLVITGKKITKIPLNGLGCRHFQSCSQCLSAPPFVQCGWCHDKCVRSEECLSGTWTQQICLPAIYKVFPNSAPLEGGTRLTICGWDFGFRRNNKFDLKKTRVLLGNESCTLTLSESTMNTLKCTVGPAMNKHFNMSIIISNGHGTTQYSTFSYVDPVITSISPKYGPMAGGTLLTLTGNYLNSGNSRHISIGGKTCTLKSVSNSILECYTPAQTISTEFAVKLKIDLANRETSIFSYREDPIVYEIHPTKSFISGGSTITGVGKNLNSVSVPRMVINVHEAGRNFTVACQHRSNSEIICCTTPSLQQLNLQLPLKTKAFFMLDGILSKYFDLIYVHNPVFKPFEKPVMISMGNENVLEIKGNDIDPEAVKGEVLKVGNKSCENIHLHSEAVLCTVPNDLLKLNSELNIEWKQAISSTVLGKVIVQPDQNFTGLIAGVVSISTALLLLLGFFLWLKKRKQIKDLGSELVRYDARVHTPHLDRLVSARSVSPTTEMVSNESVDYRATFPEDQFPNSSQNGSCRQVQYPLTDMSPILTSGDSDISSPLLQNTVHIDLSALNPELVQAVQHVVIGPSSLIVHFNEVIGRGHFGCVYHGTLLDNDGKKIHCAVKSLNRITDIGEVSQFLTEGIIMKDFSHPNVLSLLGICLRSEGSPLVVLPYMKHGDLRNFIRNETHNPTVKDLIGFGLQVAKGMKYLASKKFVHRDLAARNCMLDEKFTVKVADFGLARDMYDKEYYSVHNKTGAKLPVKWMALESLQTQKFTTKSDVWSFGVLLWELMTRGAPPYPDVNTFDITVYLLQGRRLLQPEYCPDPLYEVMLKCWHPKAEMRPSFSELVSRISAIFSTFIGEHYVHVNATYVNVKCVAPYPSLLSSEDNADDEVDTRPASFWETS
Procedure: The in vitro binding properties of antibody-chelator conjugates were assessed in various relevant cell lines and compared to their corresponding unconjugated antibody. Briefly, samples were diluted in buffer (PBS/3% FBS) and added to relevant cell lines. After completion of the binding step (60 min at 4°C), the cells were washed and incubated with secondary antibody conjugated with phycoerythrin to detect antibodies containing a human IgG Fc region. After 60 min at 4°C, the cells were washed, and fluorescence on the cells was determined by flow cytometry using Guava EasyCyte 8HT (Luminex).
Cell surface binding of Telisotuzumab-macropa was compared to unconjugated Telisotuzumab and investigated by flow cytometry using MKN-45 and HT-55 cells expressing human c-Met (Figure 37).

Row | Substance | cytotoxicity [1] | amount of GUCY2C-coated beads at which maximal binding was achieved [2] [µg] | EC50 [3]
1 | Ac-225-macropa-Indusatumab: Ac-225 macropa complex bound to the anti-GUCY2C monoclonal antibody Indusatumab | strong and specific cytotoxicity | 7.5 | 
2 | Telisotuzumab-macropa |  |  | comparable EC50 in both cell lines as unconjugated Telisotuzumab
